The source of these data is the supplement of paper PMC9170038.

The data set concerns MS2 coat protein. As to the kind of experiment: apparent KD of MS2 coat protein; designed switch direction (-1 OFF switch, 1 ON switch): -1; higher = weaker reporter binding. The method in brief:
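Normalised cluster fluorescence was curve-fitted, and each design's median over clusters is its apparent KD. Before this, SNAP-549-labelled MS2 coat protein was titrated from 0.7 or 1.5 nM, doubling to 3 µM, over RNA switches transcribed on Illumina chips by stalled E. coli RNA polymerase. Titrations had no input, 200 uM small-molecule ligand, or an oligonucleotide input, and steps lasted 0.8–1.5 h (lowest) to 10–20 min (highest).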

The mark [1] stands for this setting: Eterna round: R95, input ligand: FMN 200 uM.
[2] abbreviates: Eterna round: R95, input ligand: none.
Setting [3] is: Eterna round: R95, input ligand: microRNA oligo, concentration not stated.
Where [4] appears, read: input ligand: microRNA oligo, concentration not stated.

“UGCGGGCUUUUGAGACCUCACAUGAGGAUCACCCAUGUGCUUGUCUUGUGGGUCGGUAGGUCGUUGGCUGACUGACG [Sensor-V1 #97] (Eterna round: R97, puzzle: Sensor, turn-off variant 1)”: the “apparent KD of MS2 coat protein” value reads like this: (input ligand: FMN 200 uM) 15.5 nM; (input ligand: none) 13.4 nM.

In the case of “AGAAAUGCCCAUGGCCGCAAGCUUUUCGCUUGUCUUACCACAUGAGGAUCACCCAUGUGACAUGGGCUCCUUAUAAU [Usdigeor] (puzzle: Sensor v3, turn-off variant 2)”, the “apparent KD of MS2 coat protein” value was determined as 12.3 nM under setting [1] and 12 nM under setting [2].

In the case of “CAUGUCUGAGGAUAUCGUUAUUUGUACAUGAGGAUCACCCAUGUCCUAUUUAUUAUAUUUCGAGAAGGCAGUGUAU [JR_E5_Sub093] (puzzle: Exclusion 5)”, the “apparent KD of MS2 coat protein” value under setting [3] came out at 15.6 nM.

On to “CUUCAUCCACCAGAGCUCACACUUAUACCUGCUCUGGUGACAUGAGGAUCACCCAUGUUUUUUGCCCGUCUUAUCUU [Sensor v3, turn-off variant 2 (MOD of Leso)] (puzzle: Sensor v3, turn-off variant 2)”, for which the “apparent KD of MS2 coat protein” value runs as follows: under setting [1], 149 nM; under setting [3], 19.8 nM; under setting [2], 207 nM.

On to “GUCAUCACACAUGGGAUCAACAUGAGGAUCACCCAUGUUGCCAAGUUGUUUGCACGUCUUAUAAUACGUUUUUCGAG [Mod-Jxg] (Eterna round: R97, puzzle: Sensor, turn-off variant 1)”, for which the “apparent KD of MS2 coat protein” value stood at 21.6 nM (input ligand: FMN 200 uM) and 28.2 nM (input ligand: none).

In the case of “GAUGUGGGUUUCCGGAGGAACAUGAGGAUCACCCAUGUAGAAGUUGGAGGGAUAACGCUUUUUGCUCGUUACACGUG [JR_SV3TOV1_Sub055] (puzzle: Sensor v3, turn-off variant 1)”, the “apparent KD of MS2 coat protein” value came to 178 nM under setting [1], 170 nM under setting [3] and 221 nM under setting [2].

As for “CUACUGAAGCUUUGCUUUAGUCGUACAUGAGGAUCACCCAUGUAGGAUAUACAUGAGGAUCACCCAUAGAAGGAUAGAGUGAUC [salish99_ExNG3_r04_602] (Eterna round: R96, puzzle: Exclusion NG 3)”, the “apparent KD of MS2 coat protein” value is, setting by setting: (input ligand: FMN 200 uM) 36.1 nM; under setting [4], 31.2 nM; (input ligand: none) 38.6 nM.

Turning to “CGAGUGUAAGGAUAUUCGGCACUAGGGACCACCCUAGUGUAGAAGAAGGUACAUGAGGAUCACCCAUGUGGUUA [Bereisonma] (puzzle: Exclusion 4)”, the “apparent KD of MS2 coat protein” value under setting [3] amounted to 273 nM.

Turning to “CUGAUGUUAGGAUAUCAGGCGCCCGCCACUAGCAGGGCGCAUGAGAAGGGACAUGAGGAUCACCCAUGUAGUAA [Anbionxe] (puzzle: Exclusion 4)”, the “apparent KD of MS2 coat protein” value under setting [3] worked out at 27.3 nM.

Consider “CUGCUCCGUGUAGGAUAUGCAUACCACCACUAUGCAGAAGGACAUGAGGAUCACCCAUGUAUGUUAUUAUCACGUGAAGCGUCC [Design 19] (Eterna round: R96, puzzle: Exclusion NG 1)”, for which the “apparent KD of MS2 coat protein” value reads like this: (input ligand: FMN 200 uM) 27.8 nM; under setting [4], 18.1 nM; (input ligand: none) 23.7 nM.

As for “AAGACAAAUGUAGGAUAUGCGUGGCGAAGCUAUGCAGAAGGACAUGAGGAUCACCCAUGUCUUAGCGUCUGCGUACAGAUGCUA [JL eng1 1.35 mod 9] (Eterna round: R96, puzzle: Exclusion NG 1)”, the “apparent KD of MS2 coat protein” value under setting [4] worked out at 12.1 nM.

Consider “GGUCCUGAUGAUUUUCUAUACAUGAGGAUCACCCAUGUAUGUUUAUUUUGUUUUUCGCUUUUUGGUCGUCAAUAAUA [Honey] (Eterna round: R97, puzzle: Sensor, turn-off variant 1)”, for which the “apparent KD of MS2 coat protein” value reads like this: (input ligand: FMN 200 uM) 44.1 nM; (input ligand: none) 41.6 nM.

Regarding “UAUGGUUAAGUCAGGAUAUGCUCGUAGUGGUCUAUGCAGAAGGGACAUGAGGAUCACCCAUGUAUGGUCGUGUU [Ex4 #68] (Eterna round: R97, puzzle: Brourd's mod of Exclusion 4)”, the “apparent KD of MS2 coat protein” value was 119 nM (input ligand: FMN 200 uM) and 106 nM (input ligand: none).

For the sequence “AAUAACAUGUUGAUCAAAUACAUGAGGAUCACCCAUGUAUGCUUUUUGCUCGAUAAGAUCAACUAAUAAUAAUAAUA [StovNew/1-A] (Eterna round: R97, puzzle: Sensor, turn-off variant 1)”, the “apparent KD of MS2 coat protein” value by setting is: (input ligand: FMN 200 uM) 14 nM; (input ligand: none) 15.6 nM.

Consider “GUCUCGUCAGGAUAUGACGCUACAUUUUCUUUUUAGAAGAGUCAGAAGGGACAUGAGGAUCACCCAUGUGAUUC [Ex4 - 3 - 3] (puzzle: Exclusion 4)”, for which, under setting [3], the “apparent KD of MS2 coat protein” value worked out at 310 nM.

As for “CGGUGUAACGUAGGAUAUCAGCGCAACUGACGAUGAGAAGGACGACAUGAGGAUCACCCAUGUGAUUUCUCAAUAUUAUACAUC [Prohibition 87 - Jieux - Exclusion NG 1] (Eterna round: R96, puzzle: Exclusion NG 1)”, the “apparent KD of MS2 coat protein” value came out at 511 nM (input ligand: FMN 200 uM), 58.9 nM under setting [4] and 74.5 nM (input ligand: none).

For “GAUCAGUCAGGAUAUCAAUCCGCCUGUGAUACGCAGGCGGCUGAGAAGGGACAUGAGGAUCACCCAUGUAAAGA [jl-ex4-4.22 ViennaUCT mod] (Eterna round: R97, puzzle: Exclusion 4)”, the “apparent KD of MS2 coat protein” value was 191 nM (input ligand: FMN 200 uM) and 80.4 nM (input ligand: none).

Regarding “AGCUGUGGCCGAGGAUAUCUAUCUCCAAUAACCGAAAUAUAAUCGGACAUGAGGAUCACCCAUGUAGAGAAGGCGGUCUCAGCA [Eli eng2 - 090] (Eterna round: R96, puzzle: Exclusion NG 2)”, under setting [4], the “apparent KD of MS2 coat protein” value worked out at 15 nM.

For the sequence “AUCGUGUGAGGAUAUCGAUCAUGGAGGUCUAGGUCCAUGCGCGAGAAGGCACAUGAGGAUCACCCAUGUAAUGG [jl-ex4-4.30 ViennaUCT mod] (Eterna round: R97, puzzle: Exclusion 4)”, the “apparent KD of MS2 coat protein” value is, setting by setting: (input ligand: FMN 200 uM) 65.3 nM; (input ligand: none) 66.5 nM.

“AUAUAGAUGGUCAGGAUAUGCUAGUGAUAACAGUAGCAGAAGGGACAUGAGGAUCACCCAUGUGGAUAGCGCAC [Brourd's EX4 #6] (Eterna round: R97, puzzle: Brourd's mod of Exclusion 4)”: the “apparent KD of MS2 coat protein” value is, setting by setting: (input ligand: FMN 200 uM) 123 nM; (input ligand: none) 37.1 nM.

On to “AGUACUAUCACGAAAGUGAUAGUACAAUAAGCUUGUGGAACAUGAGGAUCACCCAUGUCCUCAUAAGCUCGUCUUAU [Mat - Sensor v3 - Turn-off var 2 - D27] (puzzle: Sensor v3, turn-off variant 2)”, for which the “apparent KD of MS2 coat protein” value is 15.7 nM under setting [1], 68.7 nM under setting [3] and 14.7 nM under setting [2].

With “AAGAAGCGAGGAUAUGCAAAAGAAAAGAAGAAGAAGAAAGAACAUGAGGAUCACCCAUGUAGAAGGCGCAAGAA [Mine, too!] (puzzle: Exclusion 2)”, the “apparent KD of MS2 coat protein” value by setting is: under setting [1], 19.8 nM; under setting [3], 20.8 nM; under setting [2], 22.2 nM.

For the sequence “AAUUGACGCCAAAUAUACAACAUGAGGAUCACCCAUGUACCCUAGGUACGCUCGCAGGCAAGCUUUGCUCGUCCACA [Eternabot (L1) Solution 33] (Eterna round: R97, puzzle: Sensor, turn-off variant 1)”, the “apparent KD of MS2 coat protein” value runs as follows: (input ligand: FMN 200 uM) 40.2 nM; (input ligand: none) 47.9 nM.

Consider “GUUAGACAUGAGGAUCACCCAUGUGAGGAUAUGAUGCGAUCGUGAUGAAAUGAUCGCAUCAGAAGGCACAUAUG [Mat - Mod of JL D67] (puzzle: Exclusion 1)”, for which the “apparent KD of MS2 coat protein” value under setting [3] came to 123 nM.

As to “CAGUGCGUAGGAUAUACGAGGGCCCUUUAUUGUUGAUAAUGACAUGAGGAUCACCCAUGUAGAAGGGCGUCAUG [Eternabot (L1) Solution 45] (Eterna round: R97, puzzle: Exclusion 2)”, the “apparent KD of MS2 coat protein” value (input ligand: FMN 200 uM) was determined as 87.3 nM and the “apparent KD of MS2 coat protein” value (input ligand: none) stood at 24.8 nM.

Turning to “CUCAUUAGUCAGGAUAUCGUGUGGGUAAUUGUACGAGAAGGGACGACAUGAGGAUCACCCAUGUGGUCUUUGGG [JR_Ex6_Sub085] (Eterna round: R97, puzzle: Exclusion 6)”, the “apparent KD of MS2 coat protein” value is, setting by setting: (input ligand: FMN 200 uM) 70.6 nM; (input ligand: none) 165 nM.

Regarding “GUGUAGCAAGGAUAUACAUGAGGAUCACCCAUGUGAAUAAGAUAGAAUAAGAUAAAGUGUAGAAGGUGCAGUGU [Excluse me!!! 8 - Jieux - Exclusion 3] (puzzle: Exclusion 3)”, under setting [3], the “apparent KD of MS2 coat protein” value came to 36.6 nM.

In the case of “GAUCCUUUUACGGACGUCUCGAAACAUGAGGAUCACCCAUGUGAGGAUAUCUCCGAGAGAUCGGCAGAGAAGGCACAAUAACAA [MOD Eternabot solution 19 score 84.66] (Eterna round: R96, puzzle: Exclusion NG 3)”, the “apparent KD of MS2 coat protein” value was found to be 91.4 nM (input ligand: FMN 200 uM), 19.7 nM under setting [4] and 50.3 nM (input ligand: none).

For the sequence “AAAUUAGCAAGUAGAUCCGACAUGAGGAUCACCCAUGUAAUCUAAUAUUACGCUGCAUGAGAGUGCGCUCGUCUUAG [Sensor-V1 #16] (Eterna round: R97, puzzle: Sensor, turn-off variant 1)”, the “apparent KD of MS2 coat protein” value is, setting by setting: (input ligand: FMN 200 uM) 211 nM; (input ligand: none) 238 nM.

Turning to “UCUCUUGGGCAAGGAUAUCCUGUGCGGUUCCGGCUCGUGUCUGUCACAUGAGGAUCACCCAUGUGGGAGAAGGUGCCUGCGGUC [Design 81] (Eterna round: R96, puzzle: Exclusion NG 2)”, the “apparent KD of MS2 coat protein” value came to 13.6 nM (input ligand: FMN 200 uM), 9.94 nM under setting [4] and 15.1 nM (input ligand: none).

“UGUGUGCUGCGAGGAUAUACAUGAGGAUCACCCAUGUAAAUGUGUGAGGCUUUGCCUCACACAAUGUAGAAGGCGCAGUACACU [Mat - Exclusion NG 2 - Mod of JL - D4] (Eterna round: R96, puzzle: Exclusion NG 2)”: the “apparent KD of MS2 coat protein” value (input ligand: FMN 200 uM) was found to be 16.9 nM, the “apparent KD of MS2 coat protein” value under setting [4] turned out to be 9.63 nM and the “apparent KD of MS2 coat protein” value (input ligand: none) came to 11.6 nM.
